This passage reports stoichiometry N results from PMC8175363.

For orientation: stoichiometry N means a count of units in the complex or per binding partner.

This test concerns the target unspliced Pyrococcus horikoshii PolII intein fusion protein NIHPho (N-extein M-H-A-A-K-R-N, 166-residue intein, C-extein C-D-G-D-E-D-His6) (Pyrococcus horikoshii) (UniProt O57861). The test can be described thus: crystal structure; sitting drop vapour diffusion; protein about 3 mg/ml in 20 mM Tris pH 8.0, 100 mM NaCl; reservoir 0.1 M Tris HCl pH 8.5, 1.8 M ammonium sulfate, 0.1 M sodium chloride, 1% glycerol; data at 100 K; phased by SAD with the Se-Met derivative.

“unspliced Pyrococcus horikoshii PolII intein fusion protein NIHPho (N-extein M-H-A-A-K-R-N, 166-residue intein, C-extein C-D-G-D-E-D-His6) (from UniProt O57861 945-1123) (domain or fragment)” showed a stoichiometry N of 2.
